Measured values taken from US6982249B1, “Bradykinin analogs as selective inhibitors of cell activation” (The Regents of the University of Michigan, priority 1997, dated 2006).
“Also recorded” adds a separate entry of the source.

How the values were obtained:
[1] = system: fibroblasts (thrombin receptor, PAR 1); assay: α-thrombin-induced calcium mobilization in fibroblasts; type: cell-based
Protocol: (§1) A variation of the calcium mobilization assay uses fibroblasts (which express a single receptor for thrombin, PAR 1), umbilical vein endothelial cells, or other cells which express the cloned thrombin receptor, and which grow in monolayers on the bottom of plastic wells.
(§2) Fibroblasts or endothelial cells were grown in 24-96 well plates and loaded with the fluorescent Ca^2+ indicator fura-2 acetyloxymethylester (5 μM, Molecular Probes Inc.) by incubation for 60 min. in HEPES-Tyrode's buffer at 37° C. After washing the cells, the fluorescence of the cells was monitored on a thermostatically controlled heated pad at 37° C. for 1 min, then the cells were incubated with α-thrombin (1 to 5 nM) in the absence or presence of a BK analog. Fluorescence was detected by a Perkin-Elmer LS-50B Luminescence Spectrofluorometer. Excitation was measured at 340 and 380 nm wavelength and emission was assessed at 510 nm. The cytosolic Ca^2+ levels were determined as described above. The Rmax value was determined using 10 mM Ca^2+ in the presence of 20 μM Ionophor A23187; Rmin was determined in the presence of 20 mM EDTA.
(§3) The ability of BK analogs to inhibit α-thrombin-induced calcium mobilization in fibroblasts and human umbilical vein endothelial cells (HUVEC) was assayed as described in Example 1C.

[2] = system: α-thrombin binding to platelets; assay: 125I-α-thrombin binding to platelets; conditions: HK, LK, domain 3: molar excess
[3] = system: human umbilical vein endothelial cells (HUVEC); assay: α-thrombin-induced calcium mobilization in HUVEC; type: cell-based
Protocol: as §1, §2, §3

B1: HK: human high molecular weight kininogen (protein, UniProt P01042 19-644, looked up)
Kininogen-1: QESQSEEIDCNDKDLFKAVDAALKKYNSQNQSNNQFVLYRITEATKTVGSDTFYSFKYEIKEGDCPVQSGKTWQDCEYKDAAKAATGECTATVGKRSSTKFSVATQTCQITPAEGPVVTAQYDCLGCVHPISTQSPDLEPILRHGIQYFNNNTQHSSLFMLNEVKRAQRQVVAGLNFRITYSIVQTNCSKENFLFLTPDCKSLWNGDTGECTDNAYIDIQLRIASFSQNCDIYPGKDFVQPPTKICVGCPRDIPTNSPELEETLTHTITKLNAENNATFYFKIDNVKKARVQVVAGKKYFIDFVARETTCSKESNEELTESCETKKLGQSLDCNAEVYVVPWEKKIYPTVNCQPLGMISLMKRPPGFSPFRSSRIGEIKEETTVSPPHTSMAPAQDEERDSGKEQGHTRRHDWGHEKQRKHNLGHGHKHERDQGHGHQRGHGLGHGHEQQHGLGHGHKFKLDDDLEHQGGHVLDHGHKHKHGHGHGKHKNKGKKNGKHNGWKTEHLASSSEDSTTPSAQTQEKTEGPTPIPSLAKPGVTVTFSDFQDSDLIATMMPPISPAPIQSDDDWIPDIQIDPNGLSFNPISDFPDTTSPKCPGRPWKSVSEINPTTQMKESYYFDLTDGLS
modifications: high molecular weight kininogen
With B1 the “inhibition of α-thrombin-induced calcium mobilization in fibroblasts (FIG. 5)” value [1] was “inhibited calcium mobilization; also recorded: inhibition”, the “inhibition of 125-α-thrombin binding to platelets” value [2] was “inhibit” and the “inhibition of α-thrombin-induced calcium mobilization in endothelial cells (FIG. 6)” value [3] was “inhibited calcium mobilization; also recorded: inhibition”.
